For assay [1], the target named is full length HA-mGluR2 (rat) (UniProt P31421). The assay is described as follows: co-IP.
Assay [2] concerns the target chimera with the ECD of mGluR2 and the TMD (and C-terminal) of mGluR1 (rat). The assay is described as follows: single molecule pull-down.
Assay [3] shares this target. Nature of the assay: single molecule subunit counting.
For assay [4], the target named is chimera with the ECD of mGluR1 and the TMD (and C-terminal) of mGluR2 (rat). The assay is described as follows: single molecule pull-down.
Assay [5] has the same target. The assay is described as follows: single molecule subunit counting.
Assay [6] addresses mGluR2-GFP truncated by removing the entire extracellular domain (rat). Nature of the assay: single molecule pull-down.

Chain of full length HA-mGluR2 (rat) (P31421 19-872): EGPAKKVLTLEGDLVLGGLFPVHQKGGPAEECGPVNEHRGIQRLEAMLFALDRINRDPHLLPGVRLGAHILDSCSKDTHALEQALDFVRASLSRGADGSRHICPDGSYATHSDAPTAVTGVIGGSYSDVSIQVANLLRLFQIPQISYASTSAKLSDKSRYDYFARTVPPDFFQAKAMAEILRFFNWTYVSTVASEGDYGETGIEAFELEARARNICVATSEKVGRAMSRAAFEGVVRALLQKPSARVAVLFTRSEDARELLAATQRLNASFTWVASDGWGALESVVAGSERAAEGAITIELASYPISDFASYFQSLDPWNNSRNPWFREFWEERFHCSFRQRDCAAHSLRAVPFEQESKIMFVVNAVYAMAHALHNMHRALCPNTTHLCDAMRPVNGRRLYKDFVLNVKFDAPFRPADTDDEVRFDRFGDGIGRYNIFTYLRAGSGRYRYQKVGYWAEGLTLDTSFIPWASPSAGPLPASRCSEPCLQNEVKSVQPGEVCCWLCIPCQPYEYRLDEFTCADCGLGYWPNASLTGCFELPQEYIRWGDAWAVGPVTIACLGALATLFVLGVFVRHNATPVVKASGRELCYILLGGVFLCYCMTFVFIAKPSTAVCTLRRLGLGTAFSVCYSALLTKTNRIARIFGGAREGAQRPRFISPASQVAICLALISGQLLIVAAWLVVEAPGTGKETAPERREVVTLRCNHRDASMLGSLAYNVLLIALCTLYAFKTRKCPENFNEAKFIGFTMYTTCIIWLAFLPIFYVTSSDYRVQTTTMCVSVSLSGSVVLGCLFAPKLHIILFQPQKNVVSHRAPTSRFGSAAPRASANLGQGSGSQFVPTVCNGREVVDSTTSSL
Chain of mGluR2-GFP truncated by removing the entire extracellular domain (domain or fragment) (P31421 19-872): as above
Chain of GFP-tagged isolated ligand binding domain of mGluR2 (domain or fragment) (P31421 19-872): as above

As for “GFP-tagged isolated ligand binding domain of mGluR2 (domain or fragment)”, the percent of spots bleaching in a single step in assay [1] came to 92.4%.
One may read the stoichiometry N as a count of units in the complex or per binding partner. For the substance “chimera with the ECD of mGluR2 and the TMD (and C-terminal) of mGluR1 (receptor)”, the stoichiometry N in assay [2] and in assay [3] was 2 each time.
On to “chimera with the ECD of mGluR1 and the TMD (and C-terminal) of mGluR2 (receptor)”, for which the stoichiometry N in assay [4] and in assay [5] was 2 throughout.
For “mGluR2-GFP truncated by removing the entire extracellular domain (domain or fragment)”, the percent of spots bleaching in a single step in assay [1] turned out to be 89.6%. This substance returned a percent of spots bleaching in two steps in assay [6] of 30%.

These data come from publication PMC5053906.
